The record followed here is PMC3825029 (Journal of immunology (Baltimore, Md. : 1950), 2013).

By Kd is commonly meant the constant that tells how readily two partners part at equilibrium. A low value points to higher affinity.

The target in assay [1] is C3b. Kind of assay: SPR.
Assay [2] has as its target C3dg (UniProt P01024 955-1303). As to the kind of experiment: SPR. For orientation: SPR reads the build-up and loss of mass on a sensor chip optically.

Chain of C3dg (P01024 955-1303): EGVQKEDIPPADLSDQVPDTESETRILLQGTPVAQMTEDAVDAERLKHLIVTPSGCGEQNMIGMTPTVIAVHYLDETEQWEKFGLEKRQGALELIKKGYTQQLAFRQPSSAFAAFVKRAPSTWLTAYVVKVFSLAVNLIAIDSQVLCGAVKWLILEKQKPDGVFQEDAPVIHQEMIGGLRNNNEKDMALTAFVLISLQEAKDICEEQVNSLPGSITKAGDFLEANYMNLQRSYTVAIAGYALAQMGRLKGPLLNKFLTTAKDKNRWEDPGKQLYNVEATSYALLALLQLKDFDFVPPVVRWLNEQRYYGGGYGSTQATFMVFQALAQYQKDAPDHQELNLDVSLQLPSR

“factor H (from UniProt P08603 19-1231) (natural protein)” showed a Kd in assay [1] of 1000 nM.

The molecule “mini-FH (from UniProt P08603 1-264; P08603 1107-1231) (designed binder)” displayed a Kd in assay [1] of 1000 nM. This counts as single-digit micromolar.

B1: FH19-20 (domain or fragment, human)
chain: GKCGPPPPIDNGDITSFPLSVYAPASSVEYQCQNLYQLEGNKRITCRNGQWSEPPKCLHPCVISREIMENYNIALRWTAKQKLYSRTGESVEFVCKRGYRLSSRSHTLRTTCWDGKLEYPTCAKR
Consider B1, for which the binding result in assay [2] is on record as “binds”.
